Assay results: article PMC5934816, “Towards development of aptamers that specifically bind to lactate dehydrogenase of Plasmodium falciparum through epitopic targeting”

What was measured:
[1] = biological target: rPvLDH, lactate dehydrogenase (Plasmodium vivax, UniProt Q4PRK9 1-316); assay: ELONA; settings: protein: recombinant; chain copies: 4
[2] = biological target: rPfLDH, lactate dehydrogenase (Plasmodium falciparum, UniProt Q71T02 1-316); assay: ELONA; ELONA: 500 ng immobilized protein; aptamer in HMCKN (2 mM HEPES, 0.2 mM MgCl2, 0.2 mM CaCl2, 0.2 mM KCl, 15 mM NaCl, pH 7.4), 2 h, room temperature; washes HMCKN then 25 mM TBS pH 7.6, 0.1% NP-40; settings: protein: recombinant; chain copies: 4; label: 5'-biotin

Row | Binder | binding result [1] | binding result [2] | Kd [1]
1 | C7 concatemer control (ssDNA) DNA: ACTTTGCACATGCTTATTCTTGTCTCCCATGCCTGTTGTGAGCCTCCTAAC | no binding | no binding | –
2 | GTTCGATTGGATTGTGCCGGAAGTGCTGGCTCGAAC (ssDNA) [pL1] | – | – | 79.2 ± 12.7 nM
